assay: label from the status in PepcDB records
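Note: failed if final PepcDB status was selected cloned or expressed and not failed if soluble or beyond.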

Row | Sequence | protein production
1 | MEDGKQAINEGSNDASPDLDVNGTILMNNEDFSQWSVDDVITWCISTLEVEETDPLCQRLRENDIVGDLLPELCLQDCQDLCDGDLNKAIKFKILINKMRDSKLEWKDDKTQEDMITVLKNLYTTTSAKLQEFQSQYTRLRMDVLDVMKTSSSSSPINTHGVSTTVPSSNNTIIPSSDGVSLSQTDYFDTVHNRQSPSRRESPVTVFRQPSLSHSKSLHKDSKNKVPQISTNQSHPSAVSTANTPGPSPNEALKQLRASKEDSCERILKNAMKRHNLADQDWRQYVLVICYGDQERLLELNEKPVIIFKNLKQQGLHPAIMLRRRGDFEEVAMMNGSDNVTPGGRL | failed
2 | MEDIVHKYKVSVIICFFNSAETLDAMIKDAVNQTLKDKEIILIDDGSYDGSLEIAEKYANKYSFIKIFSQKNMGLSASRDKGLSEAQGEYVIYWDGDDSVESTMLEVLYNRAKADNSDIVCSQFYIYFLAINVKRKSLLPFPNYPLTGKEAFKNLLFTVYATFGRKNFVVGTLWDKLIRRELILKNNIRQQNVVFEDIVFVMQIFLKASKVSFVNNYFYTNFQRMGSMSSSISVLHKSKLSLNTMETLLKREGIFNECQNLYKKFFLQFYYFISFKQIYIISWNISDKLVYRAYKEKLISVLDEIKGLSEFQDCYEYAKSFGFNEIQILPRIMLKIWNFSSRLYVNFSIFIYKFFIKN | failed
3 | MEDIYKLIDDINLQKIENLDSRVNEALSSNNDDALFILGETLYNFGLTPQGLEVFRTLYHKYPDESELLIYFIEGLMSENQTDEALEYLAQVEPSTEKLMLEADLYQQINMLEVAIDKLQEALDLEPNDPIIHFALAELLYYDGQYLRATREYETVLETGEYEVNGVNIFSRMADCSLQSGNYSDAISLFDEINEEEMNSEDYFKKSIAYEKNDLTQEAIKIMQTLLSKDPDFIQGYFYLQSLFENEKNYPDAIETGKEGLRLSQFYKELMVSTGSLEIEHGDANEGVELLKQALEVDNAYHEPLLILSDLYRNEEDYESIIQLLTYVDEEDLDPIFMWHLAYAYGQEERDKEAQHFFELAYPTLQTQVEFLSDYYFYLLEIGQKEKAILILNQLLEIDPSNENWHDESMRLQI | failed
4 | MEDLKGSHGLGLKIQLSRVCEVKPEVKPLPAGETPSCGFARLDRRCLCGHRATLIPLGLPIAPRPPPSRCPFLKPSLPYVPGPEYGKQRPSCPVPIMSEVTKELLELVWGTKSSPGLSDTIFCRWTQGFVFSDSEGSALEQFEGGPCAVIAPVQAFLLKKLLFSSEKSSWRDCSEDEQKELLCHTLCDILESACDSSGSYCMVSWLRGRTTEDAARISGSPAQSSCQVGHSSALAVEELGFERFHALIQKRSFRTVSELKDAVLDQYSMWGNKFGVLLFLYSVLLTKGIENIKNSIEDANEPLIDPVYGHGSQSLINLLLTGHAVSNVWDGDRECSGMQLLGIHEQATVGFLTLMEALRYCKVGSYLKSPKFPIWIVGSETHLTVFFAKDMALVAPEAPSEQARRVFQTYDPEDNGFIADTLLEDVMKALDLVSDPEYINLMKNKLDPEGLGIILLGPFLQEFFPDQGSSGPESFTVYHYNGLKQSNYNEKVMYVEGTAVVMGFEDPMLQTDDTPIKRCLQTKWPYIELLWTTDRSPSLN | failed
5 | MEDPLGRLEWIKFLSAFYDKEDKAENYFNQQVSKVMATENKVSSLKKPKVAFGMVDNGKVYIPAKNSYAAKMVDMAGGDYIFKDLNNKSGYITLEDFYSKSKDADVLIYSSSKEYTPSLKSMLSAAPILKTIKPVKNKKVWCFGKDYYQAIDKTDEIIEDLASIFHPESFKGYKIKHYSHLEHHHHHH | not failed
6 | MEDRIPVIKRFTGGGTVIVDKSTLFVSLICNKDDVPNVQPYPRSVMAWSGSLYDEVFKSVNGFQLRENDYVFGDRKFGGNAQSIIKNRWIHHTSFLWDYDVRNMAYLKLPSRVPQYRLERDHTDFVCRMKDYIERSDFVEKTVKAVRNQFTLKQVNLEDIDSYAKGGYLKTTRLLTMEELEEAMADTIQNT | failed
7 | MEDSTATATSSSSTHYFSIFTNYPLISAVTSFTIAQFIKLFTSWYRERRWDLKQLIGSGGMPSSHSATVTALAVAIGLQEGFGGSHFAIALILASVVMYDATGVRLHAGRQAEVLNQIVYELPAEHPLAESRPLRELLGHTPPQVCRHMT | failed
8 | MEEAKGPVKHVLLASFKDGVSPEKIEELIKGYANLVNLIEPMKAFHWGKDVSIENLHQGYTHIFESTFESKEAVAEYIAHPAHVEFATIFLGSLDKVLVIDYKPTSVSL | not failed
9 | MEEAPQVGDRLHCYWNLVSKDREKVFEAVVTDVETVSFRELRENDELAREDGFRDAKQLEEEFQRMYQGELTDDTEFQVIRFRKLPVDEWEGKRIDEKAMITRRADILFDSGKFSKSELCYTAALRIDPNDVYILNRLGDNLTRLGRFDEALENYRRAIMIEPENPYIWNNMAITLLNAGRVDEALEASERALKIKHDPDLLYWRGVMLEVAGKPLEALESYERSLEIDPRNAEVWTARGNLLSDLGRMEEAIESYNSALELALEDEQDPNVWNRKGNALLELERFNEALECYRRAIEMEPENDVYWTNMGVALLELERFDEALEAFNRALMINPKNEDAGILREECLENL | failed
10 | MEEFAVVIIGAGPAGGQCARQLAQQGVRVLLVEQHSNFSQNNYSSAASPLETMALFDLPPGVVARYWRNLAIAATEKEQIWYSDQPRGVVFDFAKLRQFLADTVTKAGGQVWLGHRFWGYQQVGDGLEVTLRRSSKNSLSSDSVEKVEKVTVKTQVLIDATGSKRAVINCGQPKATDNNQYYRGIGTEYLITVDETTHQRFADTLVFFLGYRWSPQGYSWIFPMDNHQLKVGTAIFAGQHRYLGELKPLRSYTEAIIRDYLKLEKSQYHLEEIHGSVLDYAVNQGDTYHRGSVLAIGDAVSTVNFLGGEGIRHGMQGANIAVPFVADYLRGHVQAFEKYEQAMKAHFAEPWQRTEKLSQRVYLEFGDRQIDLGVTYLSYLRYDDVLDLLFHYRFDRIYGGITPLLLKKVAQFSQQCRQWLRKLSPLEHHHHHH | failed
11 | MEEGPIKKKLKSAGQGSGKTDAFRNFEQFFFRLNTLYTFLICRKHVVPTFKTLCGPIETALKRTVTKEDLAMVMALMPRECVFKYIDENQIYTETKIFDFNNGGFQQKENDIFELKDVDDQNQTQKSTQLLIFEFIDGTMQRSWSASDRFSQIKIPTYTTEEMKKMISKREALFKSRLREFILEKEKANLDPFSELTNLAQKYIPRERDYEDPIEAMMKAKQESNEMSIPNYSNNSVITTIPQMIEKLKSTEFYASQIKHCFTIPSRTAKYKGLCFELAPEVYQGMEHENFYSHQADAINSLHQGENVIITTSTSSGKSLIYQLAAIDLLLKDPESTFMYIFPTKALAQDQKRAFKVILSKIPELKNAVVDTYDGDTEPEERAYIRKNARVIFTNPDMIHTSILPNHANWRHFLYHLKLVVVDELHIYKGLFGSHVALVMRRLLRLCHCFYENSGLQFISCSATLKSPVQHMKDMFGINEVTLIHEDGSPTGAKHLVVWNPPILPQHERKRENFIRESAKILVQLILNNVRTIAFCYVRRVCELLMKEVRNIFIETGREDLVTEVMSYRGGYSASDRRKIEREMFHGNLKAVISTNALELGIDIGGLDAVLMCGFPLSMANFHQQSGRAGRRNNDSLTLVVASDSPVDQHYVAHPESLLEVNNFESYQDLVLDFNNILILEGHIQCAAFELPINFERDKQYFTESHLRKICVERLHHNQDGYHASNRFLPWPSKCVSLRGGEEDQFAVVDITNGRNIIIEEIEASRTSFTLYDGGIFIHQGYPYLVKEFNPDERYAKVQRVDVDWVTNQRDFTDVDPQEIELIRSLRNSDVPVYFGKIKTTIIVFGFFKVDKYKRIIDAIETHNPPVIINSKGLWIDMPKYALEICQKKQLNVAGAIHGAQHAIMGMLPRFIVAGVDEIQTECKAPEKEFAERQTKRKRPARLIFYDSKGGKYGSGLCVKAFEHIDDIIESSLRRIEECPCSDGCPDCVAASFCKENSLVLSKPGAQVVLHCILGHSEDSFIDLIKDGPEPNMPEIKVETVIPVSEHVNFSDDFKIIDVRRATKDDTHTNEIIKKEI | failed
12 | MEEGVNMDIRPTRIELIRTRRRIRLAKKGLDLLKMKRSALIYEFLQISRTIRGMKENLRKEVVEALNIIKVASVLEGSLALERIANMSSDSRINVNSRNVMGVNIPTLEVSYNLSILSDVYRTVSVPVAIDDSIRRFQKLFYDLILIVEKENSLRNLLMEIDRTKRRSNAIENILIPRLEYQAKMIKMTLDERERDTFTTLKTIKKKIEAENDLEHHHHHH | failed
13 | MEEHNANPLRFETNPYHNIVIKDRKVMELTGVKQIDSFDANEFLLETAQGWLMIQGKDLKLGKLDTERGDVIINGIIEALSYVSNKKGTAKETMMSKLFR | failed
14 | MEEKQERYSISEKTYQEFIDHTRVLALEERGIVQCGIATCRDFFSVYRKNQKKHMLLYTVRGKGWLESGACRYELEPGSLVVVPAGIENGFGMEDETWQIAWVFLSQHKEWSMVGENISYQLTPAPEVMYSCIQTLLRSINLSIDYGSAVGAHSVAQLELMLNMPSSESVSRNQLKLRRVFDLVQRQLHKDWSVEQLAALYPCSEPHLHRLTQQQFGRSPMAHLMRMRMEYAARLLRSTEWPIQHIGEIVGYPTSANFSTRFKAWSSMTPREFRQNGRIERDPEK | failed
15 | MEEKQILCVGLVVLDVISLVDKYPKEDSEIRCLSQRWQRGGNASNSCTILSLLGAPCAFMGSMAPGHVADFVLDDLRRYSVDLRYTVFQTTGSVPIATVIINEASGSRTILYYDRSLPDVSATDFEKVDLTQFKWIHIEGRNASEQVKMLQRIDAHNTRQPPEQKIRVSVEVEKPREELFQLFGYGDVVFVSKDVAKHLGFQSAEEALRGLYGRVRKGAVLVCAWAEEGADALGPDGKLLHSDAFPPPRVVDTLGAGDTFNASVIFSLSQGRSVQEALRFGCQVAGKKCGLQGFDGIV | failed
16 | MEELFCIGCGARIQTENKDAAGYTPRAALEKGLETGELYCQRCFRLRHYNEITDVHITDDEFLKLLHEVGDSDALVVNVIDIFDFNGSIIPGLSRFVAGNDVLLVGNKKDILPKSVKDGKVTQWLTERAHEEGLRPVDVILTSAQNHHAIKDLIDTIEKYRHGQDVYVVGVTNVGKSTLINAIIREITGSRDVITTSRFPGTTLDKIEIPLDDGSYIFDTPGIIHRHQMAHYLTAKNLKYVSPKKEIKPKTYQLNSEQTLFLAGLARFDFISGQKQGFTAYFDNNLNLHRTKLVGADEFYTKHVGKLLTPPTGKEVSDFPKLVRHEFTIKDKMDIVYSGLGWIRVKSEAENPVVVAAWAPEGVAVVLRKALI | failed
17 | MEELVGLLRIRVKRGINLAQRDTLSSDPFVVITMGSQKLKTRVVENNCNPEWNEELTLALRHPDEPVNLIVYDKDTFTSHDKMGDAKIDIKPFLEVHKMGLQELPDGTEIKRVVPNRENCLAEASSIVSNNGKIVQNMILLLRNVECGEVEIQLEWIDIPGSRGL | failed
18 | MEEPKWLEGLLRTNFFSICPRHRETPRNECNMFCLSCQNAAFCFYCRSSFHIDHPVLQIRRSSYHDVVRVSEIENALDIRGVQTYVINSARVLFLNERPQPKNSSHEPFLIPFASVPWVARFVFLHLFSMQNSFL | not failed
19 | MEEPLRQESPTTFHAKTSDRGQIDLGISKHKTVAEAWEGYRQRRHRSTHLQAIETALLQQRNDRTEDEDIVLWKGKNDVYKPQFLTKETLNHMRTISMDVDWYKGVWFGHSTPKYSFCVWLAVLNRLSTGDRMTHWNGGQSAACVLCHNAPETRDHLFFSCDFASIVWSNLARGIYGDRFSTHWQDLIQAISGSWMTPLDSFFARYLFQATVHTIWRERNGRNHGEKPNSAALLIK | failed
20 | MEERSQLFLEQYLSSVSREVSEKYTSFSADYFCADEYNANVCADLILRGEKRASCSLEYWYSQKGELMPQVGHLQVVTNWDGKPICIIEITSVSKCQYNQVSEDFAASEGEGDKSLAWWQEAHRNFFSRECHELGIEFREDMLLVLEHFKVVYH | not failed
21 | MEESATVEVVVGRVGRAHGLRGDVVVEVRTDEPDARFGVGATVQIEGSRRDLTVVRSRWAKGCLIVAFDEVKDRQGAEELRGSVLVVDVEPNDDPDDPDEFWDRRLRGLTVVDESGKSRGAVKDVLHMPAQDVLVIDVSGEEHLVPFVHQLVPTVDVASGRIVVSGIPGLLDSNAEEAR | failed
